Patent publication US20240043859A1, “HERBICIDE-RESISTANT PROTEIN, AND GENE AND USE THEREOF” (QINGDAO KINGAGROOT CHEMICAL COMPOUND CO., LTD., priority 2020, published 2024)
Entries after “also recorded” stand apart in the source; their conditions may differ.

B1: QYD75: AAD-like enzyme, SEQ ID NO. 149 (protein)
chain: MPSFNIAPIDASFGAVVTGIRLATVDDERWRELHQAWLEHALLIFPGQHLSRDEQISFARRFGPLEFDMAAISNVKSDGTLRIEADNDDVVKILKGNMGWHADSTYMSVQAKGAVFSAEVVPAAGGQTGFADMRAAYDALDDGLRTKVETLAAHHSLHYSQAKLGHQPEAGSAYSGYGFHAGPVPLRPLVKTHPETGRKSLLIGRHAHNIPGLDPDESERLLDELVDFACQAPRVYHHSWSAGDVVIWDNRCLLHRATPWDMTQPRVMWHSRIAGDPVAEASLN
modifications: Synthetic polypeptide, QYD75, D75
B2: QYD31: AAD-like candidate enzyme, SEQ ID NO. 61 (protein)
chain: MKVEHLTEATFGSVVTDIDLETIDDAEWRELYDLWIERALLVFPGAFLSAEGQDAFARRFGDLEFSRAALSNIGKDGKVHHENDDEVVKSLRGNEGWHIDSTYMPVQAKGAVFSAEIVPSSGAATGWADMRSAYEELDAETRERLADLTAYHSLYYSQGRAGNLPDEPNEDGTYNLYGYHDMEVSLRPLIKIHPITERPSLLIGRHAHDIVGMDPAESESLLDDLNDWACQPPRTYHHQWDVGDAVLWDNRRLQHRGTPFDMTEPRRMWHTRIAGDPSSELALNHHPDTVPSDDVERHPTGTWAC
modifications: Synthetic polypeptide, QYD31, D31
B3: QYD3: AAD-like candidate enzyme; 100.00% identical to US20160002662-0002 (AAD13) (protein)
chain: MSPAFDIAPLDATFGAVVTGVKLADLDDAGWLDLQAAWLEYALLVFPDQHLTREQQIAFARRFGPLEFEMAAISNVRPDGSLRVESDNDDMMKILKGNMGWHADSTYMPVQAKGAVFSAEVVPSVGGQTGFADMRAAYDALDEDLKARVETLQARHSLHYSQSKLGHQTKAADGEYSGYGLHDGPVPLRPLVKIHPETGRKSLLIGRHAHAIPGLEPAESERLLQQLIDFACQPPRIYHHDWAPGDAVLWDNRCLLHQATPWDMTQKRIMWHSRIAGDPASETALAH
modifications: Synthetic polypeptide, QYD03, D3
B4: QYD4: AAD-like candidate enzyme; 99.65% identical to US20100251432-0002 (AAD13 mutant) (protein)
chain: MSPAFDIAPLDATFGAVVTGVKLADLDDAGWLDLQAAWLEYALLVFPDQHLTREQQIAFARRFGPLEFAMAAISNVRPDGSLRVESDNDDMMKILKGNMGWHADSTYMPVQAKGAVFSAEVVPSVGGQTGFADMRAAYDALDEDLKARVETLQARHSLHYSQSKLGHQTKAADGEYSGYGLHDGPVPLRPLVKIHPETGRKSLLIGRHAHAIPGLEPAESERLLQQLIDFACQPPRIYHHDWAPGDAVLWDNRCLLHQATPWDMTQKRIMWHSRIAGDPASETALAH
modifications: Synthetic polypeptide, QYD04, D4
B5: QYD1: AAD-like candidate enzyme; 100.00% identical to US20170022515-0011 (AAD1) (protein)
chain: MAHAALSPLSQRFERIAVQPLTGVLGAEITGVDLREPLDDSTWNEILDAFHTYQVIYFPGQAITNEQHIAFSRRFGPVDPVPLLKSIEGYPEVQMIRREANESGRVIGDDWHTDSTFLDAPPAAVVMRAIDVPEHGGDTGFLSMYTAWETLSPTMQATIEGLNVVHSATRVFGSLYQAQNRRFSNTSVKVMDVDAGDRETVHPLVVTHPGSGRKGLYVNQVYCQRIEGMTDAESKPLLQFLYEHATRFDFTCRVRWKKDQVLVWDNLCTMHRAVPDYAGKFRYLTRTTVGGVRPAR
modifications: Synthetic polypeptide, QYD01, D1
B6: QYD14: AAD-like candidate enzyme, SEQ ID NO. 27 (protein)
chain: MTTTKTKSFITIKNKRFHYIWLRENCPSCRYAAPYQQLYDPNISDRPEYPQPLSVELNEETLTIDWDETPAHRSVFSVEWLLKNSYDPQPELESDNYIFWERAKLELKPPQTYNAETINNDGWMEQLFSLGFVILENIPPEKLESFLSSIGPIFNADYGTIMPLETRDKTTESLPSRDGCPLPPHHDLSYWGGHRLVEFLYCVENQNSGGESTLVDGFQVAQDFSQDYPQYYQTLLETPVQFWLVDKTHQYRFCNIATILECDRYGNLTTVRFSKRNCRPHLPFEQLEDFYQAYHTFFHYLKKNDYKHQFQLRSHNCLLFQNFRILHGRTAFDPALGKRKLNSGYVDWNFFVGRRNFQ
modifications: Synthetic polypeptide, QYD14, D14
B7: QYD2: AAD-like candidate enzyme; 100.00% identical to US20170009214-0019 (AAD2) (protein)
chain: MTIAIRQLQTHFVGQVSGLDLRKPLTPGEAREVESAMDKYAVLVFHDQDITDEQQMAFALNFGQREDARGGTVTKEKDYRLQSGLNDVSNLGKDGKPLAKDSRTHLFNLGNCLWHSDSSFRPIPAKFSLLSARVVNPTGGNTEFADMRAAYDALDDETKAEIEDLVCEHSLMYSRGSLGFTEYTDEEKQMFKPVLQRLVRTHPVHRRKSLYLSSHAGKIASMSVPEGRLLLRDLNEHATQPEFVYVHKWKLHDLVMWDNRQTMHRVRRYDQSQPRDMRRATVAGTEPTV
modifications: Synthetic polypeptide, QYD02, D2
B8: QYD5: AAD-like candidate enzyme, SEQ ID NO. 9 (protein)
chain: MPFAGELPSAIETQVSKILALIAAYRHRSPNVPDRFAQFVPELEKQLADTVSKKEPVRFVLPAFPFKAPVEGNKRKTLGSLPDKAEEIALKTLDGFADSIAEIYEAGATVVLVSDASVYGDLLNVADAEAFTYHQELQKLASSLGLEHLEFVRPGALAGIAPKDAHTLEEYSDHVNKTRNLLDGPLAQDVNPSEDENVQATSKHYDTALPTTDDPEAFKTAMLKRGKAYAKLIASSSETTIRLSIHESNNVGKITLDLFPPSTNPDFITPWHGAVAVLADASVRIVDASTVDMTKFEVITNAEGRPWLLREKSELFNWFGMELDFEPLFPCGMVVRPRNGYGPYKFEDVNMKQVRRLALSTAPLLLRGFTMEIEKEVFRQKARELGEIQMWPFGDILEVRENADFNMNNVLTREAMPFHYDGVFKTIQDEKTGEWISTPPLFQMFRNRAASQQKGGLTLFSSSRNLIPLLGPDSIPLDELRKLKWKTFTVVNEAFGGHELLLPFIASHPETGADTFRFHEPWPESKCISGSSEPTIVQVVGWPAAESDALCAKLTDLLYDRRVAYRHQWTAGDFIFNDNATTHHTRTAFENGHREHWRVHVS
modifications: Synthetic polypeptide, QYD05, D5

Legend:
[1] = format: cell-based, Escherichia coli
Experimental: To transform the plasmids to be tested, an AAD12-expressing plasmid and a blank control plasmid pET15b were respectively transformed into the protein expression E. coli BL21(DE3) strains. A monoclone was selected and inoculated in a 10 ml centrifuge tube with 3 ml LB medium, and cultivated at 37° C., 200 rpm for 6-8 hours. […] The temperature was switched to 28° C. and the cultivation continued overnight. In the next morning, 200 μL of each bacteria solution was taken and centrifuged to precipitate thallus, 180 μL of the supernatant was taken and added in a 96-well plate, and 20 μL of borate buffer of pH 10 was added. Then the mixture was added with 2 μL of 8% potassium ferricyanide and mixed well, followed by adding 2 μL of 2% 4-aminoantipyrine, and placed at room temperature for 5 min to observe the color and detect the A510 value. […]

[2] = Chromogenic reaction of degrading herbicides in bacteria: 2,4-D; format: cell-based, Escherichia coli; conditions: recombinant E. coli expressing the gene, 2,4-D added to the medium, red = phenols
Experimental: To transform the plasmids to be tested, an AAD12-expressing plasmid and a blank control plasmid pET15b were respectively transformed into the protein expression E. coli BL21(DE3) strains. A monoclone was selected and inoculated in a 10 ml centrifuge tube with 3 ml LB medium, and cultivated at 37° C., 200 rpm for 6-8 hours. The culture medium was added with 0.1 mM IPTG and 2 mM α-ketoglutaric acid, and then 0.5 mM 2,4-D. The temperature was switched to 28° C. and the cultivation continued overnight. In the next morning, 200 μL of each bacteria solution was taken and centrifuged to precipitate thallus, 180 μL of the supernatant was taken and added in a 96-well plate, and 20 μL of borate buffer of pH 10 was added. Then the mixture was added with 2 μL of 8% potassium ferricyanide and mixed well, followed by adding 2 μL of 2% 4-aminoantipyrine, and placed at room temperature for 5 min to observe the color and detect the A510 value.
The bacteria solution also appeared red when 2,4-D was directly added into the medium of AAD12-expressing bacteria, as shown in FIG. 1.
2,4-D was added into these bacteria solutions of AAD gene-expressing recombinant E. coli and cultivation was continued for color development.

Arabidopsis thaliana = experiment: Herbicide resistance of transgenic Arabidopsis thaliana seedlings on plate medium (root growth); format: in vivo; conditions: Arabidopsis overexpressing the gene
Experimental: Expression in Arabidopsis thaliana was regulated by its AtUbi10 Arabidopsis thaliana ubiquitin promoter and the MAS (mannopine synthase) terminator. Hygromycin resistance gene (HygR=hpt) served as the selection marker.
Preparation of Agrobacterium infection solution: An activated Agrobacterium (GV3101) monoclone was picked and inoculated in 30 ml YEP liquid medium [yeast powder 10 g/L, tryptone 10 g/L, NaCl 5 g/L, 25 mg/L Rifampicin and 50 mg/L Kanamycin], shaking-cultured at 200 rmp/min, 28° C. overnight until the OD600 was about 1.0-1.5, then centrifuged at 6000 rmp/min for 10 min to collect the bacteria, and the supernatant was discarded. Arabidopsis thaliana infection solution (sucrose 50 g/L, Silwet L-77 300 μL/L, no need to adjust pH) was used to resuspend the cells to OD600=0.8 for later use.
Genetic transformation of Arabidopsis thaliana by flower dipping: Before transformation of Arabidopsis thaliana plants, attentions were paid to whether the plants were growing well, the inflorescences were abundant, and no stress response occurred. The first transformation was performed when plants were about 20 cm high. Plants could be properly watered if the soil was dry. The grown siliques were cut off with scissors the day before transformation. The inflorescences of the plants to be transformed were soaked in the above-mentioned Agrobacterium solution for 30 seconds to 1 minute, which was stirred gently during the period. And a layer of liquid film should appear on the infiltrated plant. The transformed plants were cultured in a dark environment for 24 hours, and then taken out and grown in a normal light environment. A second transformation could be performed in the same way a week later.
Seeds were treated with disinfectant for 5 min, washed with sterile water for 5 times and then one part was spread on MS transgenic screening medium (containing 30 μg/mL hygromycin, 100 μg/mL carbenicillin) to screen transgenic seedlings, and the other part was spread on MS medicated medium [containing 250 μg/mL Cefotaxime sodium and 0.3 μM 2,4-D] to screen herbicide-resistant seedlings at mean time. The petri dish spread with seeds was placed at 4° C. for vernalization for 3 days, and taken out to a illumination incubator for cultivation (temperature of 22° C., 16 hours of light, 8 hours of darkness, light intensity of 100-150 μmol/m^2/s, humidity of 75%). After one week, it was observed that the roots of the wild-type control seedlings were not elongated and their growth was inhibited, while the transgenic seedlings had normal root growth, showing drug resistance. The transgenic positive seedlings and herbicide-resistant seedlings were photographed and transplanted into small pots filled with soil for cultivation.
The transgenic lines with the nine vectors, pQY2309, pQY2310, pQY2311, pQY2312, pQY2313, pQY2314, pQY2315, pQY2316 and pQY2317, overexpressing AAD gene in the T2 generation were further tested on plate medium for their resistance to 2,4-D, 2,4-DB sodium and MCPA herbicide. Two events were tested for each transformant.

| Molecule | Chromogenic reaction of degrading herbicides in bacteria: MCPA [1] | Chromogenic reaction of degrading herbicides in bacteria: 2,4-D [2] | Chromogenic reaction of degrading herbicides in bacteria: 2,4-D ([2]; listed as D75) | Resistance of transgenic Arabidopsis thaliana: 2,4-D (Arabidopsis thaliana) |
| --- | --- | --- | --- | --- |
| B1 | Yes | Yes | could degrade 2,4-D; also recorded: capable of degrading 2,4-D |  |
| B2 |  |  |  | Yes |
| B3 |  | Yes |  | Yes |
| B4 |  | Yes |  | Yes |
| B5 |  | Yes |  | Yes |
| B6 |  |  |  | Yes |
| B7 |  | Yes |  | Yes |
| B8 |  |  |  | Yes |
